Assay results reported in publication PMC3405907.

Key:
[1] = target: turret protein (TP) of cytoplasmic polyhedrosis virus (cytoplasmic polyhedrosis virus (CPV)); experiment: cryo-EM structure
[2] = target: capsid shell protein (CSP) of cytoplasmic polyhedrosis virus (cytoplasmic polyhedrosis virus (CPV)); experiment: cryo-EM structure

Substance	stoichiometry N [1]	stoichiometry N [2]
turret protein (TP) of cytoplasmic polyhedrosis virus (enzyme)	5	–
capsid shell protein (CSP) of cytoplasmic polyhedrosis virus (natural protein)	–	120
